Measured values: the supplement of paper PMC10126150
± gives the standard deviation of the averaged measurements.

Tested on: ATP
Experiment: switch fluorescence ratio, 500 uM ATP over buffer (Cy3 cluster intensity, sum of 5 cycles each) (fold (ratio)); higher = stronger signal-on switching upon ATP binding; sequences stand for … in TCGTCGGCAGCGTCAGATGTGTATAAGAGACAGTTTTTTTTTTTTTTTTTTTTTTTTT…TC
Conditions: aptamer strand: ATP DNA aptamer (quencher-CACCTGGGGGAGTATTGCGGAGGAAGG + anchor), 100 nM annealed; ATP concentration: 500 uM
Summary of the method: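 Values give the fluorescence ratio for each switch-domain sequence, averaged from per-cluster ratios of summed target-cycle to summed buffer-cycle Cy3 intensity. The Cy3-labelled switching-strand clusters sat on a modified Illumina MiSeq flow-cell, were annealed to 100 nM quencher-labelled ATP aptamer, and were imaged in selection buffer, then after 15 min with 500 uM ATP at 22 °C. Five cycles ran with NaOH stripping and re-annealing between them, and clusters outside 100-1000 RFU were excluded.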
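Further: ATP exposure 15 min at 22 °C before imaging.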

In order of falling switch fluorescence ratio:
1. GATCGCTATC  2.91 ± 0.39
2. TAACGCTGCC  1.25 ± 0.12
3. CCGTACGTTT  1.24 ± 0.024
4. GAAAGTGCAA  1.09 ± 0.02
5. CGGAGGACAC  1.09 ± 0.059
6. TCATTAAGTT  1.08 ± 0.094
7. TTGATAGACG  1.07 ± 0.042
8. GTAGGGGGGT  1.07 ± 0.21
9. GGTAGCAAGT  1.05 ± 0.034
10. GTGATATCGG  1.05 ± 0.034
11. CATTGGGTGC  1.0458 ± 0.00093
12. TTATTGGGCA  1.04 ± 0.021
13. GAGGGGGGCG  1.04 ± 0.085
14. TTTTTGCGCT  1.04 ± 0.047
15. TTACATGTAG  1.04 ± 0.013
16. GATACATAAA  1.036 ± 0.0092
17. TCGGGGGTGC  1.04 ± 0.033
18. TTTACCCAGT  1.04 ± 0.066
19. AGAGGGGGGC  1.04 ± 0.1
20. CCAGGCTTGA  1.04 ± 0.052
21. CCTGGGGGCA  1.04 ± 0.0089
22. TTTTAGGGTA  1.03 ± 0.017
23. CGAATTGGTG  1.03 ± 0.04
24. CAGGGACCTG  1.03 ± 0.032
25. TGGGCGTTCT  1.03 ± 0.081
26. TGTTGCGCTT  1.033 ± 0.007
27. AGCTGAAGCC  1.03 ± 0.028
28. TTTACCTATA  1.02 ± 0.013
29. AATGGGATAG  1.02 ± 0.021
30. TTACCATTCG  1.02 ± 0.019
31. TAAGTTATAG  1.02 ± 0.042
32. GGGGGGCGCA  1.02 ± 0.038
33. AAGGCACTTT  1.02 ± 0.013
34. TAAAGGGAAT  1.02 ± 0.056
35. TAGGGACTAG  1.02 ± 0.015
36. TCTTTCATGT  1.02 ± 0.02
37. TGTTGGAGGT  1.02 ± 0.045
38. CGCTGTAGGT  1.02 ± 0.0058
39. TGAATGATGG  1.02 ± 0.015
40. GATGGCGGGT  1.02 ± 0.07
41. GGCCGAGGTC  1.02 ± 0.013
42. TTTCTATGGA  1.0135 ± 0.0006
43. TTCCCTTTGG  1.01 ± 0.041
44. GGACGGGGTC  1.01 ± 0.013
45. TTCCTTGGGT  1.01 ± 0.017
46. TGGCGGTTAG  1.01 ± 0.019
47. CGTATTTAAA  1.01 ± 0.013
48. ATGATAGTAA  1.009 ± 0.0027
49. GACAGGGGGG  1.01 ± 0.085
50. CAGAAATATT  1.01 ± 0.075
51. CATCGTCACG  1.007 ± 0.0025
52. CAGTCCATTA  1.011 ± 0.0093
53. CCTGAGTTTG  1.01 ± 0.035
54. GGATGGTTGG  1.012 ± 0.0068
55. AGTATTTTTA  1.01 ± 0.012
56. GATTGGCGCG  1.006 ± 0.0031
57. ATAAGATTTT  1.01 ± 0.048
58. TTCGAGTTGT  1.006 ± 0.0025
59. CGGGGTACCT  1.01 ± 0.054
60. TATGTAAATT  1.01 ± 0.012
61. TCAAGTGGGG  1.01 ± 0.053
62. ATTGTTCAAA  1 ± 0.015
63. GTTTTTGGTT  1 ± 0.028
64. AATATGTATC  1.003 ± 0.0029
65. AACTTTTATG  1 ± 0.026
66. CCAGGGTCGC  0.9965 ± 0.0067
67. TATCAATTCG  0.997 ± 0.036
68. TTTCGTTGAA  0.9964 ± 0.0069
69. GGTATTGGAC  0.9947 ± 0.0058
70. GGATGGGTGC  0.9939 ± 0.0091
71. ATTGGGACAG  0.994 ± 0.031
72. TATGATTTTG  0.993 ± 0.02
73. GAGTTTAGTT  0.9893 ± 0.0064
74. GGGGGCTTAG  0.988 ± 0.038
75. TAAGGGGATC  0.987 ± 0.059
76. CTTATGATGG  0.987 ± 0.01
77. TTTACAGCTT  0.987 ± 0.027
78. GGGGTATGTA  0.987 ± 0.055
79. TGAGGTTTGA  0.986 ± 0.02
80. TTTGTGGATG  0.985 ± 0.03
81. TAGCTGAGTT  0.984 ± 0.014
82. GTCATAAGTG  0.982 ± 0.04
83. ATGTATGGGC  0.9814 ± 0.0047
84. AAGCCCGAGG  0.981 ± 0.02
85. AGTTTATGCG  0.979 ± 0.021
86. GTGATGAGCG  0.979 ± 0.037
87. ATTCCGGCGG  0.976 ± 0.015
88. GGGACTTGGA  0.9765 ± 0.009
89. AAAGCTCGCT  0.973 ± 0.015
90. TTGGGAAGGC  0.972 ± 0.035
91. ATCTGGGGTA  0.972 ± 0.034
92. TTCAATCTGT  0.968 ± 0.064
93. AAGTATGGTA  0.965 ± 0.075
94. AAAGCTTTGG  0.963 ± 0.021
95. CACAAGGACG  0.962 ± 0.017
96. ATTTTTTGCC  0.962 ± 0.052
97. GTGGAGGGGC  0.958 ± 0.081
98. AGGGTTAGGC  0.933 ± 0.02
99. GACGCTTCG  0.931 ± 0.017
100. TGTATTTGGC  0.914 ± 0.044
